Measured values taken from the supplement of paper PMC5998384.

Columns and labels:
HeLa Kyoto [1] = assay: solubility in G1/S (NP-40 vs SDS abundance) (log2 ratio); higher = more soluble; conditions: cell cycle stage: G1/S
HeLa Kyoto [2] = assay: solubility change mitosis vs G1/S (difference of NP-40 vs SDS log2 ratios) (log2 ratio difference); higher = more soluble in mitosis
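For solubility change mitosis vs G1/S (difference of NP-40 vs SDS log2 ratios) in this document: synchronized HeLa Kyoto cells (double thymidine block for G1/S, nocodazole release for mitosis), protein amounts in NP-40 versus SDS lysates quantified by mass spectrometry, three biological replicates.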
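For solubility in G1/S (NP-40 vs SDS abundance) in this document: HeLa Kyoto cells arrested at G1/S by double thymidine block, proteins quantified by TMT10plex mass spectrometry in mild NP-40 versus SDS extracts, three biological replicates.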

Substance | solubility in G1/S (log2) (HeLa Kyoto [1]) | solubility change mitosis (log2) (HeLa Kyoto [2])
MEVEDSGGVVLTAYHSYARAQPPNAESRCAPRAAASHPLSRKSIPRCRRINRMLSNESLHPPAFSRSNSEASVDSASMEDFWREIESIKDSSMGGQEEPPPAEVTPVDEGELEAEWLQDVGLSTLISGDEEEDGKALLSTLTRTQAAAVQKRYHTYTQTMRKKDKQSIRDVRDIFGVSESPPRDTCGNHTNQLDGTKEERELPRVIKTSGSMPDDASLNSTTLSDASQDKEGSFAVPRSDSVAILETIPVLPVHSNGSPEPGQPVQNAISDDDFLEKNIPPEAEELSFEVSYSEMVTEALKRNKLKKSEIKKEDYVLTKFNVQKTRFGLTEAGDLSAEDMKKIRHLSLIELTAFFDAFGIQLKRNKTEKVKGRDNGIFGVPLTVLLDGDRKKDPGVKVPLVLQKFFEKVEESGLESEGIFRLSGCTAKVKQYREELDAKFNADKFKWDKMCHREAAVMLKAFFRELPTSLFPVEYIPAFISLMERGPHVKVQFQALHLMVMALPDANRDAAQALMTFFNKVIANESKNRMSLWNISTVMAPNLFFSRSKHSDYEELLLANTAAHIIRLMLKYQKILWKVPSFLITQVRRMNEATMLLKKQLPSVRKLLRRKTLERETASPKTSKVLQKSPSARRMSDVPEGVIRVHAPLLSKVSMAIQLNNQTKAKDILAKFQYENSHGSSECIKIQNQRLYEIGGNIGEHCLDPDAYILDVYRINPQAEWVIKPQQSS [ARHGAP28] | 0.167 | 0.00445
MFFYLSKKISIPNNVKLQCVSWNKEQGFIACGGEDGLLKVLKLETQTDDAKLRGLAAPSNLSMNQTLEGHSGSVQVVTWNEQYQKLTTSDENGLIIVWMLYKGSWIEEMINNRNKSVVRSMSWNADGQKICIVYEDGAVIVGSVDGNRIWGKDLKGIQLSHVTWSADSKVLLFGMANGEIHIYDNQGNFMIKMKLSCLVNVTGAISIAGIHWYHGTEGYVEPDCPCLAVCFDNGRCQIMRHENDQNPVLIDTGMYVVGIQWNHMGSVLAVAGFQKAAMQDKDVNIVQFYTPFGEHLGTLKVPGKEISALSWEGGGLKIALAVDSFIYFANIRPNYKWGYCSNTVVYAYTRPDRPEYCVVFWDTKNNEKYVKYVKGLISITTCGDFCILATKADENHPQEENEMETFGATFVLVLCNSIGTPLDPKYIDIVPLFVAMTKTHVIAASKEAFYTWQYRVAKKLTALEINQITRSRKEGRERIYHVDDTPSGSMDGVLDYSKTIQGTRDPICAITASDKILIVGRESGTIQRYSLPNVGLIQKYSLNCRAYQLSLNCNSSRLAIIDISGVLTFFDLDARVTDSTGQQVVGELLKLERRDVWDMKWAKDNPDLFAMMEKTRMYVFRNLDPEEPIQTSGYICNFEDLEIKSVLLDEILKDPEHPNKDYLINFEIRSLRDSRALIEKVGIKDASQFIEDNPHPRLWRLLAEAALQKLDLYTAEQAFVRCKDYQGIKFVKRLGKLLSESMKQAEVVGYFGRFEEAERTYLEMDRRDLAIGLRLKLGDWFRVLQLLKTGSGDADDSLLEQANNAIGDYFADRQKWLNAVQYYVQGRNQERLAECYYMLEDYEGLENLAISLPENHKLLPEIAQMFVRVGMCEQAVTAFLKCSQPKAAVDTCVHLNQWNKAVELAKNHSMKEIGSLLARYASHLLEKNKTLDAIELYRKANYFFDAAKLMFKIADEEAKKGSKPLRVKKLYVLSALLIEQYHEQMKNAQRGKVKGKSSEATSALAGLLEEEVLSTTDRFTDNAWRGAEAYHFFILAQRQLYEGCVDTALKTALHLKDYEDIIPPVEIYSLLALCACASRAFGTCSKAFIKLKSLETLSSEQKQQYEDLALEIFTKHTSKDNRKPELDSLMEGGEGKLPTCVATGSPITEYQFWMCSVCKHGVLAQEISHYSFCPLCHSPVG [WDR35] | -0.261 | -0.105
MFPLKDAEMGAFTFFASALPHDVCGSNGLPLTPNSIKILGRFQILKTITHPRLCQYVDISRGKHERLVVVAEHCERSLEDLLRERKPVSCSTVLCIAFEVLQGLQYMNKHGIVHRALSPHNILLDRKGHIKLAKFGLYHMTAHGDDVDFPIGYPSYLAPEVIAQGIFKTTDHMPSKKPLPSGPKSDVWSLGIILFELCVGRKLFQSLDISERLKFLLTLDCVDDTLIVLAEEHGCLDIIKELPETVIDLLNKCLTFHPSKRPTPDQLMKDKVFSEVSPLYTPFTKPASLFSSSLRCADLTLPEDISQLCKDINNDYLAERSIEEVYYLWCLAGGDLEKELVNKEIIRSKPPICTLPNFLFEDGESFGQGRDRSSLLDDTTVTLSLCQLRNRLKDVGGEAFYPLLEDDQSNLPHSNSNNELSAAATLPLIIREKDTEYQLNRIILFDRLLKAYPYKKNQIWKEARVDIPPLMRGLTWAALLGVEGAIHAKYDAIDKDTPIPTDRQIEVDIPRCHQYDELLSSPEGHAKFRRVLKAWVVSHPDLVYWQGLDSLCAPFLYLNFNNEALAYACMSAFIPKYLYNFFLKDNSHVIQEYLTVFSQMIAFHDPELSNHLNEIGFIPDLYAIPWFLTMFTHVFPLHKIFHLWDTLLLGNSSFPFCIGVAILQQLRDRLLANGFNECILLFSDLPEIDIERCVRESINLFCWTPKSATYRQHAQPPKPSSDSSGGRSSAPYFSAECPDPPKTDLSRESIPLNDLKSEVSPRISAEDLIDLCELTVTGHFKTPSKKTKSSKPKLLVVDIRNSEDFIRGHISGSINIPFSAAFTAEGELTQGPYTAMLQNFKGKVIVIVGHVAKHTAEFAAHLVKMKYPRICILDGGINKIKPTGLLTIPSPQI [TBCK] | -0.278 | -0.162
MFPVKVKVEKSELEMAKARNQLDAVLQCLLEKSHMDRERLDEEAGKTPSDTHNKDCSIAATGKRPSARFPHQRRKKRREMDDGLAEGGPQRSNTYVIKLFDRSVDLAQFSENTPLYPICRAWMRNSPSVRERECSPSSPLPPLPEDEEGSEVTNSKSRDVYKLPPPTPPGPPGDACRSRIPSPLQPEMQGTPDDEPSEPEPSPSTLIYRNMQRWKRIRQRWKEASHRNQLRYSESMKILREMYERQ [LIN37] | 0.591 | 0.0692
MFRLLSWSLGRGFLRAAGRRCRGCSARLLPGLAGGPGPEVQVPPSRVAPHGRGPGLLPLLAALAWFSRPAAAEEEEQQGADGAAAEDGADEAEAEIIQLLKRAKLSIMKDEPEEAELILHDALRLAYQTDNKKAITYTYDLMANLAFIRGQLENAEQLFKATMSYLLGGGMKQEDNAIIEISLKLASIYAAQNRQEFAVAGYEFCISTLEEKIEREKELAEDIMSVEEKANTHLLLGMCLDACARYLLFSKQPSQAQRMYEKALQISEEIQGERHPQTIVLMSDLATTLDAQGRFDEAYIYMQRASDLARQINHPELHMVLSNLAAVLMHRERYTQAKEIYQEALKQAKLKKDEISVQHIREELAELSKKSRPLTNSVKL [TTC19] | 0.331 | 0.00456
MGA | -0.38 | 0.233
MGASSSSALARLGLPARPWPRWLGVAALGLAAVALGTVAWRRAWPRRRRRLQQVGTVAKLWIYPVKSCKGVPVSEAECTAMGLRSGNLRDRFWLVIKEDGHMVTARQEPRLVLISIIYENNCLIFRAPDMDQLVLPSKQPSSNKLHNCRIFGLDIKGRDCGNEAAKWFTNFLKTEAYRLVQFETNMKGRTSRKLLPTLDQNFQVAYPDYCPLLIMTDASLVDLNTRMEKKMKMENFRPNIVVTGCDAFEEDTWDELLIGSVEVKKVMACPRCILTTVDPDTGVIDRKQPLDTLKSYRLCDPSERELYKLSPLFGIYYSVEKIGSLRVGDPVYRMV [MARC2] | -0.315 | 0.103
MGDDRPFVCNAPGCGQRFTNEDHLAVHKHKHEMTLKFGPARTDSVIIADQTPTPTRFLKNCEEVGLFNELASSFEHEFKKAADEDEKKAAAGPLDMSLPSTPDIKIKEEEPVEVDSSPPDSPASSPCSPPLKEKEVTPKPVLISTPTPTIVRPGSLPLHLGYDPLHPTLPSPTSVITQAPPSNRQMGSPTGSLPLVMHLANGQTMPVLPGPPVQMPSVISLARPVSMVPNIPGIPGPPVNSSGSISPSGHPIPSEAKMRLKATLTHQVSSINGGCGMVVGTASTMVTARPEQSQILIQHPDAPSPAQPQVSPAQPTPSTGGRRRRTVDEDPDERRQRFLERNRAAASRCRQKRKLWVSSLEKKAEELTSQNIQLSNEVTLLRNEVAQLKQLLLAHKDCPVTALQKKTQGYLESPKESSEPTGSPAPVIQHSSATAPSNGLSVRSAAEAVATSVLTQMASQRTELSMPIQSHVIMTPQSQSAGR [ATF7] | 0.504 | 0.0933
MGDPGSEIIESVPPAGPEASESTTDENEDDIQFVSEGPLRPVLEYIDLVSSDDEEPSTSYTDENIKRKDHIDYQKDKVALTLARLARHVEVEKQQKEEKNRAFREKIDFQHAHGLQELEFIRGHSDTEAARLCVDQWLKMPGLKTGTINCGTKSSFRRGGHTWVSGKPILCPIMHCNKEFDNGHLLLGHLKRFDHSPCDPTITLHGPFFSSFACVVCYKKFVTQQQYRDHLFDKEATDDGHNNNLLPQIIQCFACPNCFLLFSRKEECSKHMSGKNHFHQSFKLGDNKGIAHPISFPSFAKKLLISLCKDVPFQVKCVACHKTLRSHMELTAHFRVHCRNAGPVAVAEKSITQVAEKFILRGYCPDCNQVFVDETSTQNHKQNSGHKVRVINSVEESVLLYCHSSEGNKDPSSDLHLLLDQSKFSSLKRTMSIKESSSLECIAIPKKKMNLKDKSHEGVACVQKEKSVVKTWFCECNQRFPSEDAVEKHVFSANTMGYKCVVCGKVCDDSGVIRLHMSRIHGGAHLNNFLFWCRTCKKELTRKDTIMAHVTEFHNGHRYFYEMDEVEGETLPSSSTTLDNLTANKPSSAITVIDHSPANSSPRGKWQCRICEDMFDSQEYVKQHCMSLASHKFHRYSCAHCRKPFHKIETLYRHCQDEHDNEIKIKYFCGLCDLIFNVEEAFLSHYEEHHSIDYVFVSEKTETSIKTEDDFPVIETSNQLTCGCRESYICKVNRKEDYSRCLQIMLDKGKLWFRCSLCSATAQNLTDMNTHIHQVHKEKSDEEEQQYVIKCGTCTKAFHDPESAQQHFHRKHCFLQKPSVAHFGSEKSNLYKFTASASHTERKLKQAINYSKSLDMEKGVENDLSYQNIEEEIVELPDLDYLRTMTHIVFVDFDNWSNFFGHLPGHLNQGTFIWGFQGGNTNWKPPLNCKIYNYLNRIGCFFLHPRCSKRKDAADFAICMHAGRLDEQLPKQIPFTILSGDQGFLELENQFKKTQRPAHILNPHHLEGDMMCALLNSISDTTKECDSDDNMGAKNTSIGEEFISTEDVELEEAIRRSLEEM [ZNF451] | -0.657 | -0.197
MGDWMTVTDPGLSSESKTISQYTSETKMSPSSLYSQQVLCSSIPLSKNVHSFFSAFCTEDNIEQSISYLDQELTTFGFPSLYEESKGKETKRELNIVAVLNCMNELLVLQRKNLLAQENVETQNLKLGSDMDHLQSCYSKLKEQLETSRREMIGLQERDRQLQCKNRNLHQLLKNEKDEVQKLQNIIASRATQYNHDMKRKEREYNKLKERLHQLVMNKKDKKIAMDILNYVGRADGKRGSWRTGKTEARNEDEMYKILLNDYEYRQKQILMENAELKKVLQQMKKEMISLLSPQKKKPRERVDDSTGTVISDVEEDAGELSRESMWDLSCETVREQLTNSIRKQWRILKSHVEKLDNQVSKVHLEGFNDEDVISRQDHEQETEKLELEIQQCKEMIKTQQQLLQQQLATAYDDDTTSLLRDCYLLEEKERLKEEWSLFKEQKKNFERERRSFTEAAIRLGLERKAFEEERASWLKQQFLNMTTFDHQNSENVKLFSAFSGSSDWDNLIVHSRQPQKKPHSVSNGSPVCMSKLTKSLPASPSTSDFCQTRSCISEHSSINVLNITAEEIKPNQVGGECTNQKWSVASRPGSQEGCYSGCSLSYTNSHVEKDDLP [SSX2IP] | -0.387 | 0.187
